Data: paper doi:10.1101/2023.07.07.548133

Target: cytosolic PAS domain (PASc) of the bacterial citrate sensor histidine kinase (CitA)
Assay: MINFLUX fluorescence nanoscopy

cytosolic PAS domain (PASc) of the bacterial citrate sensor histidine kinase (CitA) (domain or fragment)
stoichiometry N: 2
